Data: PMC11293385 (Genes & Development, 2024)

B2: His-tagged IκBζ(404–718) (domain or fragment, human, UniProt Q9BYH8 404-718, looked up)
chain: MGNPMNTTQLGKSLFQWQVEQEESKLANISQDQFLSKDADGDTFLHIAVAQGRRALSYVLARKMNALHMLDIKEHNGQSAFQVAVAANQHLIVQDLVNIGAQVNTTDCWGRTPLHVCAEKGHSQVLQAIQKGAVGSNQFVDLEATNYDGLTPLHCAVIAHNAVVHELQRNQQPHSPEVQELLLKNKSLVDTIKCLIQMGAAVEAKDRKSGRTALHLAAEEANLELIRLFLELPSCLSFVNAKAYNGNTALHVAASLQYRLTQLDAVRLLMRKGADPSTRNLENEQPVHLVPDGPVGEQIRRILKGKSIQQRAPPY

Legend:
[1] = target: T1, p50(1–376) homodimer (murine, UniProt P25799 1-376); assay: native gel or EMSA
T1 sequence (looked up): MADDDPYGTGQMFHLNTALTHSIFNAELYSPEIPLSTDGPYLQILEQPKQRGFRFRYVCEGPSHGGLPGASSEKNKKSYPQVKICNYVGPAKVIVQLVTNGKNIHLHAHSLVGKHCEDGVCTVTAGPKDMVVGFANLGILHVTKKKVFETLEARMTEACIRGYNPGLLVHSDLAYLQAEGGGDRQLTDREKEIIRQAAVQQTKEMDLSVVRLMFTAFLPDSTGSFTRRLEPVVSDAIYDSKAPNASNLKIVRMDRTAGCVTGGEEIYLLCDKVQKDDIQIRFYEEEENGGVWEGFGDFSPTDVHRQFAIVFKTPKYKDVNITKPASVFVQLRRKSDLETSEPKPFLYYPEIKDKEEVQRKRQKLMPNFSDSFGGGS

[2] = target: p50(1–376):RelA(1–325) heterodimer (murine, UniProt P25799 1-376; Q04207 1-325); assay: native gel or EMSA
Chain of p50(1–376):RelA(1–325) heterodimer (Q04207 1-325, one chain of several): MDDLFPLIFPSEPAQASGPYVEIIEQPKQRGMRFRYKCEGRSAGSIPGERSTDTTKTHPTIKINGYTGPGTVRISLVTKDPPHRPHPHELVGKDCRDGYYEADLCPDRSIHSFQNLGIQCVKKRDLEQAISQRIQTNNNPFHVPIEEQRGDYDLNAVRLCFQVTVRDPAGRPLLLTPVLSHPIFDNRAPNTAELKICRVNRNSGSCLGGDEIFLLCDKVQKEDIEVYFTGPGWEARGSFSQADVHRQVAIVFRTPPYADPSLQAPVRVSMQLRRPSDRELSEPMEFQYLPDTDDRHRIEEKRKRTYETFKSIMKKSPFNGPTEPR

[3] = target: T2, p50(1–435) homodimer (murine, UniProt P25799 1-435); assay: SPR
T2 sequence (looked up): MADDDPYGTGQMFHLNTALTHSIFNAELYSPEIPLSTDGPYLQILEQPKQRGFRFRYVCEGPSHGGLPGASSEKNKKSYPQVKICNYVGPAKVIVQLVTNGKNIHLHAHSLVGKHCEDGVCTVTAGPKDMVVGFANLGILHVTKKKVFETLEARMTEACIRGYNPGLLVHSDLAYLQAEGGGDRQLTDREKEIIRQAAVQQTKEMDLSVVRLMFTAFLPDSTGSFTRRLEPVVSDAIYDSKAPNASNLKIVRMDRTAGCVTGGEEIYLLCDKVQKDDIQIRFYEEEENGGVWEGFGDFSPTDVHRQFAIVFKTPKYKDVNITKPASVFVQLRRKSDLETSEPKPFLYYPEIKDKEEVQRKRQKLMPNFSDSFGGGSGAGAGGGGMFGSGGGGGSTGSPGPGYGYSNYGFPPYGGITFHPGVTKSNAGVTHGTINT

[4] = target: T3, p50(39–363) homodimer (murine, UniProt P25799 39-363); assay: SPR
T3 sequence (looked up): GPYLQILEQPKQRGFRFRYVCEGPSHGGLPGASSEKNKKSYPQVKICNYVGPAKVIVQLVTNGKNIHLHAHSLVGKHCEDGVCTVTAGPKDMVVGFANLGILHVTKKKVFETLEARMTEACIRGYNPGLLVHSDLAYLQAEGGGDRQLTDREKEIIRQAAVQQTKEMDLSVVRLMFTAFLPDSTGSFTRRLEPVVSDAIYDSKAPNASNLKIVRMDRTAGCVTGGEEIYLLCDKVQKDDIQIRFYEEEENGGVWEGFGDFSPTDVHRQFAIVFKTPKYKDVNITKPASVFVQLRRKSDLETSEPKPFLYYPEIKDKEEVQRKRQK

[5] = target: NF-kB p50;GST-IkBzeta ankyrin repeat domain (Mus musculus;Homo sapiens, UniProt P25799;Q9BYH8 1-376;404-718, |); assay: EMSA supershift
[6] = target: the molecule itself; assay: crystal structure
[7] = target: B2; assay: SPR

B1: GST-IκBζ(404–718) (domain or fragment, human, UniProt Q9BYH8 404-718, looked up)
chain: MGNPMNTTQLGKSLFQWQVEQEESKLANISQDQFLSKDADGDTFLHIAVAQGRRALSYVLARKMNALHMLDIKEHNGQSAFQVAVAANQHLIVQDLVNIGAQVNTTDCWGRTPLHVCAEKGHSQVLQAIQKGAVGSNQFVDLEATNYDGLTPLHCAVIAHNAVVHELQRNQQPHSPEVQELLLKNKSLVDTIKCLIQMGAAVEAKDRKSGRTALHLAAEEANLELIRLFLELPSCLSFVNAKAYNGNTALHVAASLQYRLTQLDAVRLLMRKGADPSTRNLENEQPVHLVPDGPVGEQIRRILKGKSIQQRAPPY
binding result [1]: binds | binding result [2]: binds

B2
binding result [3]: binds | binding result [4]: binds

B3: human IL-6 kB DNA probe (dsDNA)
DNA 1: AGATTTATCAAATGTGGGATTTTCCCATGAGTCTCAATATT
DNA 2: AATATTGAGACTCATGGGAAAATCCCACATTTGATAAATCT
binding result [5]: binds

B4: murine p50 dimerization domain homodimer (residues 245–376) (domain or fragment, UniProt P25799 245-376, looked up)
chain: ASNLKIVRMDRTAGCVTGGEEIYLLCDKVQKDDIQIRFYEEEENGGVWEGFGDFSPTDVHRQFAIVFKTPKYKDVNITKPASVFVQLRRKSDLETSEPKPFLYYPEIKDKEEVQRKRQKLMPNFSDSFGGGS
binding result [6]: binds | Kd [7]: 0.0912 nM

B5: RelA(191–290)–p50(350–376) chimeric fusion protein (other, murine, UniProt Q04207 191-290, looked up)
chain: TAELKICRVNRNSGSCLGGDEIFLLCDKVQKEDIEVYFTGPGWEARGSFSQADVHRQVAIVFRTPPYADPSLQAPVRVSMQLRRPSDRELSEPMEFQYLPEIKDKEEVQRKRQKLMPNFSDSFGGGS
Kd [7]: 0.615 nM
